Data on three molecules can be found in patent US20020151683A1 (MOGAM BIOTECHNOLOGY RESEARCH INSTITUTE, published 2002).

This test addresses T1, HLA-A2.1, a human MHC Class I molecule, at the surface of T2 cell (human).
T1 construct: detected with BB7.2 antibody against HLA-A2.1; also called MHC Class I molecules at the surface of T2 cell
Put plainly: T2 cell MHC stabilisation assay, peptide 1-100 ug/ml, flow cytometry with BB7.2 anti-HLA-A2.1 and FITC anti-mouse Ig. How it is done:
Seven different peptides including the peptides as disclosed in Table 1 above which were derived from HBV X protein were synthesized chemically and dissolved in phosphate buffered saline (hereinafter, referred to as “PBS”). In order to investigate whether the peptides can bind to MHC Class I molecules associated with induction of CTL, each peptide was added to T2 cell line in a concentration of 100, 64, 32, 16, 8, 4, 2 and 1 μg/ml, respectively, and reacted at 37° C. for 4 hours. And then, the cells were washed with PBS to remove unreacted peptides, added with BB7.2 antibody against HLA-A2.1, a human MHC Class I molecule, and reacted at 4° C. for 1 hour. The cells were washed with PBS again, added with fluorescein isothiocyanate (FITC)-conjugated anti-mouse immunoglobulin antibody, and reacted at 4° C. for 1 hour. Then, fluorescence of the cells was determined using fluorocytometer (FACScan, BECTON DICKINSON) and the results were shown in FIG. 1.
For orientation: Flow cytometry measures light scatter and fluorescence of single cells or particles in a stream.
EIRLKVFVL [X7 peptide derived from HBV X protein (positions 126-134)]: the binding result is given as “binds”.
In the case of HLSLRGLFV [X3 peptide derived from HBV X protein (positions 052-060)], the binding result is given as “binds”.
Consider CLFKDWEEL [X6 peptide derived from HBV X protein (positions 115-123)], for which the binding result was “binds”.
